One data set concerns hTERT-HMEC. Put plainly: percentage of EdU-negative (G0-arrested) nuclei per well, 72 h; higher = more G0 arrest. The settings on record: reference: sequence is the full UniProt precursor, the tested protein was the secreted form or ectodomain.
Another data set relates to MCF7. The description is as above. The note with it: reference: sequence is the full UniProt precursor, the tested protein was the secreted form or ectodomain.
Where [1] appears, read: protein concentration 0.00771429 µM.
Setting [2] is: protein concentration 0.0771429 µM.
[3] abbreviates: protein concentration 0.03125 µM.
Where [4] appears, read: protein concentration 0.3125 µM.
Where [5] appears, read: protein concentration 0.02225 µM.
[6] abbreviates: protein concentration 0.2225 µM.
[7] abbreviates: protein concentration 0.0225 µM.

± gives the standard deviation of the averaged measurements.
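Note: secreted proteins added to cultured cells, EdU pulse at the end, nuclei found by Hoechst imaging, EdU status from nuclear versus surrounding ring intensity ratio, PBS as neutral control.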

“MWPLTVPPPLLLLLCSGLAGQTLFQNPEEGWQLYTSAQAPDGKCICTAVIPAQSTCSRDGRSRELRQLMEKVQNVSQSMEVLELRTYRDLQYVRGMETLMRSLDARLRAADGSLSAKSFQELKDRMTELLPLSSVLEQYKADTRTIVRLREEVRNLSGSLAAIQEEMGAYGYEDLQQRVMALEARLHACAQKLGCGKLTGVSNPITVRAMGSRFGSWMTDTMAPSADSRVWYMDGYYKGRRVLEFRTLGDFIKGQNFIQHLLPQPWAGTGHVVYNGSLFYNKYQSNVVVKYHFRSRSVLVQRSLPGAGYNNTFPYSWGGFSDMDFMVDESGLWAVYTTNQNAGNIVVSRLDPHTLEVMRSWDTGYPKRSAGEAFMICGVLYVTNSHLAGAKVYFAYFTNTSSYEYTDVPFHNQYSHISMLDYNPRERALYTWNNGHQVLYNVTLFHVISTSGDP”: the “percentage of EdU-negative” value in the data set with hTERT-HMEC (setting [1]) came to 4.89 ± 0.63%; in the data set with hTERT-HMEC (setting [2]), 5.22 ± 0.46%; in the data set on MCF7 (setting [1]) it was 24.6 ± 2.2%; with MCF7 (setting [2]), 29 ± 4.7%.
Consider “MWPLWRLVSLLALSQALPFEQRGFWDFTLDDGPFMMNDEEASGADTSGVLDPDSVTPTYSAMCPFGCHCHLRVVQCSDLGLKSVPKEISPDTTLLDLQNNDISELRKDDFKGLQHLYALVLVNNKISKIHEKAFSPLRKLQKLYISKNHLVEIPPNLPSSLVELRIHDNRIRKVPKGVFSGLRNMNCIEMGGNPLENSGFEPGAFDGLKLNYLRISEAKLTGIPKDLPETLNELHLDHNKIQAIELEDLLRYSKLYRLGLGHNQIRMIENGSLSFLPTLRELHLDNNKLARVPSGLPDLKLLQVVYLHSNNITKVGVNDFCPMGFGVKRAYYNGISLFNNPVPYWEVQPATFRCVTDRLAIQFGNYKK”, for which the “percentage of EdU-negative” value worked out at 4.62 ± 0.74% in the data set with hTERT-HMEC (setting [3]), 7.32 ± 0.21% with hTERT-HMEC (setting [4]), 25.3 ± 1.7% in the data set with MCF7 (setting [3]) and 25.1 ± 3.1% in the data set with MCF7 (setting [4]).
As to “MWQIVFFTLSCDLVLAAAYNNFRKSMDSIGKKQYQVQHGSCSYTFLLPEMDNCRSSSSPYVSNAVQRDAPLEYDDSVQRLQVLENIMENNTQWLMKLENYIQDNMKKEMVEIQQNAVQNQTAVMIEIGTNLLNQTAEQTRKLTDVEAQVLNQTTRLELQLLEHSLSTNKLEKQILDQTSEINKLQDKNSFLEKKVLAMEDKHIIQLQSIKEEKDQLQVLVSKQNSIIEELEKKIVTATVNNSVLQKQQHDLMETVNNLLTMMSTSNSAKDPTVAKEEQISFRDCAEVFKSGHTTNGIYTLTFPNSTEEIKAYCDMEAGGGGWTIIQRREDGSVDFQRTWKEYKVGFGNPSGEYWLGNEFVSQLTNQQRYVLKIHLKDWEGNEAYSLYEHFYLSSEELNYRIHLKGLTGTAGKISSISQPGNDFSTKDGDNDKCICKCSQMLTGGWWFDACGPSNLNGMYYPQRQNTNKFNGIKWYYWKGSGYSLKATTMMIRPADF”, the “percentage of EdU-negative” value was found to be 4.54 ± 0.087% with hTERT-HMEC (setting [5]), 7.44 ± 0.6% with hTERT-HMEC (setting [6]), 27.2 ± 1.1% in the data set with MCF7 (setting [5]) and 27.32 ± 0.1% in the data set with MCF7 (setting [6]).
“MWQLLLPTALLLLVSAGMRTEDLPKAVVFLEPQWYSVLEKDSVTLKCQGAYSPEDNSTQWFHNENLISSQASSYFIDAATVNDSGEYRCQTNLSTLSDPVQLEVHIGWLLLQAPRWVFKEEDPIHLRCHSWKNTALHKVTYLQNGKDRKYFHHNSDFHIPKATLKDSGSYFCRGLVGSKNVSSETVNITITQGLAVSTISSFSPPGYQVSFCLVMVLLFAVDTGLYFSVKTNI”: the “percentage of EdU-negative” value with hTERT-HMEC (setting [7]) worked out at 4.18 ± 0.071%; in the data set on hTERT-HMEC (protein concentration 0.225 µM), 4.98 ± 1.1%; in the data set on MCF7 (setting [7]), 25.6 ± 2.5%; in the data set on MCF7 (protein concentration 0.225 µM) it was 25.5 ± 3.6%.
“MWSGWWLWPLVAVCTADFFRDEAERIMRDSPVIDGHNDLPWQLLDMFNNRLQDERANLTTLAGTHTNIPKLRAGFVGGQFWSVYTPCDTQNKDAVRRTLEQMDVVHRMCRMYPETFLYVTSSAGIRQAFREGKVASLIGVEGGHSIDSSLGVLRALYQLGMRYLTLTHSCNTPWADNWLVDTGDSEPQSQGLSPFGQRVVKELNRLGVLIDLAHVSVATMKATLQLSRAPVIFSHSSAYSVCASRRNVPDDVLRLVKQTDSLVMVNFYNNYISCTNKANLSQVADHLDHIKEVAGARAVGFGGDFDGVPRVPEGLEDVSKYPDLIAELLRRNWTEAEVKGALADNLLRVFEAVEQASNLTQAPEEEPIPLDQLGGSCRTHYGYSSGASSLHRHWGLLLASLAPLVLCLSLL”: the “percentage of EdU-negative” value was 5.01 ± 0.58% in the data set on hTERT-HMEC (setting [7]), 5.87 ± 0.22% in the data set with hTERT-HMEC (protein concentration 0.225 µM), 25 ± 0.35% with MCF7 (setting [7]) and 25.2 ± 0.86% with MCF7 (protein concentration 0.225 µM).
As to “MWSLLLCGLSIALPLSVTADGCKDIFMKNEILSASQPFAFNCTFPPITSGEVSVTWYKNSSKIPVSKIIQSRIHQDETWILFLPMEWGDSGVYQCVIKGRDSCHRIHVNLTVFEKHWCDTSIGGLPNLSDEYKQILHLGKDDSLTCHLHFPKSCVLGPIKWYKDCNEIKGERFTVLETRLLVSNVSAEDRGNYACQAILTHSGKQYEVLNGITVSITERAGYGGSVPKIIYPKNHSIEVQLGTTLIVDCNVTDTKDNTNLRCWRVNNTLVDDYYDESKRIREGVETHVSFREHNLYTVNITFLEVKMEDYGLPFMCHAGVSTAYIILQLPAPDFRAYLIGGLIALVAVAVSVVYIYNIFKIDIVLWYRSAFHSTETIVDGKLYDAYVLYPKPHKESQRHAVDALVLNILPEVLERQCGYKLFIFGRDEFPGQAVANVIDENVKLCRRLIVIVVPESLGFGLLKNLSEEQIAVYSALIQDGMKVILIELEKIEDYTVMPESIQYIKQKHGAIRWHGDFTEQSQCMKTKFWKTVRYHMPPRRCRPFPPVQLLQHTPCYRTAGPELGSRRKKCTLTTG [Q9HB29]”, the “percentage of EdU-negative” value with hTERT-HMEC (setting [7]) is 5.48 ± 0.32%; in the data set on hTERT-HMEC (protein concentration 0.225 µM), 6.16 ± 0.14%; in the data set on MCF7 (setting [7]) it was 24.7 ± 2.6%; with MCF7 (protein concentration 0.225 µM), 24 ± 0.89%.

Values taken from the supplement of paper PMC11316812.
